Sequences and labels used below:
B3: Rpn8, subunit of LP2 and lid purified from yeast (natural protein, S. cerevisiae, UniProt Q08723 1-338, looked up)
chain: MSLQHEKVTIAPLVLLSALDHYERTQTKENKRCVGVILGDANSSTIRVTNSFALPFEEDEKNSDVWFLDHNYIENMNEMCKKINAKEKLIGWYHSGPKLRASDLKINELFKKYTQNNPLLLIVDVKQQGVGLPTDAYVAIEQVKDDGTSTEKTFLHLPCTIEAEEAEEIGVEHLLRDVRDQAAGGLSIRLTNQLKSLKGLQSKLKDVVEYLDKVINKELPINHTILGKLQDVFNLLPNLGTPDDDEIDVENHDRINISNNLQKALTVKTNDELMVIYISNLVRSIIAFDDLIENKIQNKKIQEQRVKDKQSKVSDDSESESGDKEATAPLIQRKNKKN
notes: Rpn8, S. cerevisiae proteasome lid subunit; source: purified from S. cerevisiae as part of LP2 or lid

Settings in all cases: both partners purified
Test [1] has as its target T1, lid particle 2 (LP2), recombinant (S. cerevisiae, UniProt P40016 1-523; Q12250 1-445; Q12377 1-434; Q06103 1-429; Q08723 1-338; Q04062 …).
T1 construct: Rpn3, S. cerevisiae proteasome lid subunit; Rpn5, S. cerevisiae proteasome lid subunit; Rpn6, S. cerevisiae proteasome lid subunit; Rpn7, S. cerevisiae proteasome lid subunit; Rpn8, S. cerevisiae proteasome lid subunit; Rpn9, S. cerevisiae proteasome lid subunit; Rpn11, S. cerevisiae proteasome lid subunit; Sem1, S. cerevisiae proteasome lid subunit; legends speak of 'untagged LP2'; operons as in …
Kind of test: negative-stain EM; purified recombinant LP2 treated with an equimolar concentration of recombinant Rpn12; 2D class averages.

Test [2] deals with T2, Rpn3, subunit of LP2 and lid purified from yeast (S. cerevisiae, UniProt P40016 1-523).
T2 construct: Rpn3, S. cerevisiae proteasome lid subunit; source: purified from S. cerevisiae as part of LP2 or lid
T2 sequence (looked up): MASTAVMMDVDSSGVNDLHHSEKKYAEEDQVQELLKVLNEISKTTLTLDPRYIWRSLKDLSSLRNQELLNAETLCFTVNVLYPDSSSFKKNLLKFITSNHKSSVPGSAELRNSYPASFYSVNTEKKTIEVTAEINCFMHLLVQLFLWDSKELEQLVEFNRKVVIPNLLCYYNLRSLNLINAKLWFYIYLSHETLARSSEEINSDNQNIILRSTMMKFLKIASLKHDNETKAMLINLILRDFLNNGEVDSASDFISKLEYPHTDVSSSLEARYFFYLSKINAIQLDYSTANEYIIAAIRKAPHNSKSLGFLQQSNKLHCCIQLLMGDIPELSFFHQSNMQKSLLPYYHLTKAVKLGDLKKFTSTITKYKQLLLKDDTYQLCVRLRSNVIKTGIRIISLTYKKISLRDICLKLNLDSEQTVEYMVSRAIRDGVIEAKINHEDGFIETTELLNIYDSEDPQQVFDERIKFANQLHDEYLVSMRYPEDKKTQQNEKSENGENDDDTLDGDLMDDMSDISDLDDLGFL
Kind of test: cross-linking; QCLMS of LP2 purified from yeast as a whole complex: BS3-d0 / BS3-d4 at 1:200 protein to cross-linker, Buffer HA, 30°C 1 h; monomeric cross-linked complex cut from SDS-PAGE, trypsin, LC-MS/MS.

Test [3] deals with T3, Rpn9, subunit of LP2 and lid purified from yeast (S. cerevisiae, UniProt Q04062 1-393).
T3 construct: Rpn9, S. cerevisiae proteasome lid subunit; source: purified from S. cerevisiae as part of LP2 or lid
T3 sequence (looked up): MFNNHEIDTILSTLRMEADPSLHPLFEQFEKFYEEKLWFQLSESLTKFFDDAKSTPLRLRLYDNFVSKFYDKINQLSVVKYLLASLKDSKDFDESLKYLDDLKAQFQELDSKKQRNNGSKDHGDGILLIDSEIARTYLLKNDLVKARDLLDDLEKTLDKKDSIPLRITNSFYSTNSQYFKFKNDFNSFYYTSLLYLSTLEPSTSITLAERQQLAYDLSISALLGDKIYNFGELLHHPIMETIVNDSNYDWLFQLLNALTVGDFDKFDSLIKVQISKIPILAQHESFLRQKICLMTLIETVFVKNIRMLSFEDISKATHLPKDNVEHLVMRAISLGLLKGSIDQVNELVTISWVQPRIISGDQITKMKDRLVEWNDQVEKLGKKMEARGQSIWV
The test is described as above.

Test [4] addresses T4, Rpn6, subunit of LP2 and lid purified from yeast (S. cerevisiae, UniProt Q12377 1-434).
T4 construct: Rpn6, S. cerevisiae proteasome lid subunit; Also stands as the whole protein for the region row on the E. coli truncations; source: purified from S. cerevisiae as part of LP2 or lid
T4 sequence (looked up): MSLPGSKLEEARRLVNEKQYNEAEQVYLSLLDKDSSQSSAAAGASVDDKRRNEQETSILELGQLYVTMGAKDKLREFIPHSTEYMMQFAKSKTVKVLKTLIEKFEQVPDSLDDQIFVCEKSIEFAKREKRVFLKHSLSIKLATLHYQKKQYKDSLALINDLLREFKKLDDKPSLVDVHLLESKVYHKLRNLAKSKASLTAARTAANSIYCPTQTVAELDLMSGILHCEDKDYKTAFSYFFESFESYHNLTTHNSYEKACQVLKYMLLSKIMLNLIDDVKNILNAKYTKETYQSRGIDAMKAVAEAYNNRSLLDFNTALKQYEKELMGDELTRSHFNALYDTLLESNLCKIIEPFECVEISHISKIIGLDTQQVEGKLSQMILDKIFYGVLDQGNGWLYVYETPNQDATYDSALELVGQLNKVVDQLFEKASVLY
The test is described as above.

Test [5] addresses T5, Rpn5, subunit of LP2 and lid purified from yeast (S. cerevisiae, UniProt Q12250 1-445).
T5 construct: Rpn5, S. cerevisiae proteasome lid subunit; source: purified from S. cerevisiae as part of LP2 or lid
T5 sequence (looked up): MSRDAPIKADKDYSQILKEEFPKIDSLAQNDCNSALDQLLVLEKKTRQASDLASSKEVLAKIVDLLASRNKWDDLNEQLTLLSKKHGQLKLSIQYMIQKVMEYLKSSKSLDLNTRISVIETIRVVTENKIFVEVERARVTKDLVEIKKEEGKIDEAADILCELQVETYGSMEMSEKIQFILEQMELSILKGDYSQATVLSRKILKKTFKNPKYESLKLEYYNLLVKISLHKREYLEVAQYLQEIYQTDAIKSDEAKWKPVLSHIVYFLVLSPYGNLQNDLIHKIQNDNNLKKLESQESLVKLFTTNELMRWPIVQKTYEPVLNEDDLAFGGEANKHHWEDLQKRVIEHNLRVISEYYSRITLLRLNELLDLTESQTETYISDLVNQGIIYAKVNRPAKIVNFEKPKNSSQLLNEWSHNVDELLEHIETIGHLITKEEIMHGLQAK
Put plainly: cross-linking; QCLMS of lid purified from yeast as a whole complex: BS3-d0 / BS3-d4 at 1:200 protein to cross-linker, Buffer HA, 30°C 1 h; monomeric cross-linked complex cut from SDS-PAGE, trypsin, LC-MS/MS.

Test [6] concerns the target T1, lid particle 2 (LP2), recombinant. Kind of test: fluorescence polarisation; fluorescence anisotropy: 1 uM fluorescein-labelled N12pep in Lid Buffer alone, with 1 uM LP2, 5 uM Rpn12, or both; 25°C 20 min; excitation 485 nm, emission 513-528 nm. For orientation: In fluorescence polarisation assays a small probe gives low polarisation when free and higher when bound to something large.

Test [7] deals with B3. Kind of test: cross-linking; QCLMS of LP2 purified from yeast as a whole complex: BS3-d0 / BS3-d4 at 1:200 protein to cross-linker, Buffer HA, 30°C 1 h; monomeric cross-linked complex cut from SDS-PAGE, trypsin, LC-MS/MS.
The target of test [8] is T5, Rpn5, subunit of LP2 and lid purified …. The test is described as above.

Ends that are not written are not given here.

T1 sequence (O94742 whole entry, chain 8 of 3, one chain of several, further chain): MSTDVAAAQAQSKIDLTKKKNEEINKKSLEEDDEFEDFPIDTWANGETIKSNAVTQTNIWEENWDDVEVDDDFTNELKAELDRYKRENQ

B1: Rpn12, recombinant, full-length (natural protein, S. cerevisiae, UniProt P32496 1-274, looked up)
chain: MPSLAELTKSLSIAFENGDYAACEKLLPPIKIELIKNNLLIPDLSIQNDIYLNDLMITKRILEVGALASIQTFNFDSFENYFNQLKPYYFSNNHKLSESDKKSKLISLYLLNLLSQNNTTKFHSELQYLDKHIKNLEDDSLLSYPIKLDRWLMEGSYQKAWDLLQSGSQNISEFDSFTDILKSAIRDEIAKNTELSYDFLPLSNIKALLFFNNEKETEKFALERNWPIVNSKVYFNNQSKEKADYEDEMMHEEDQKTNIIEKAMDYAISIENIV
notes: Rpn12, S. cerevisiae proteasome lid subunit; also called recombinant Rpn12; purified Rpn12
With B1, the binding result in test [1] is recorded as “binds”.

B2: Rpn7, subunit of LP2 and lid purified from yeast (natural protein, S. cerevisiae, UniProt Q06103 1-429, looked up)
chain: MVDVEEKSQEVEYVDPTVNRVPNYEVSEKAFLLTQSKVSIEQRKEAAEFVLAKIKEEEMAPYYKYLCEEYLVNNGQSDLEHDEKSDSLNEWIKFDQELYNELCKKNESKIKELNEKIQKLEEDDEGELEQAQAWINLGEYYAQIGDKDNAEKTLGKSLSKAISTGAKIDVMLTIARLGFFYNDQLYVKEKLEAVNSMIEKGGDWERRNRYKTYYGIHCLAVRNFKEAAKLLVDSLATFTSIELTSYESIATYASVTGLFTLERTDLKSKVIDSPELLSLISTTAALQSISSLTISLYASDYASYFPYLLETYANVLIPCKYLNRHADFFVREMRRKVYAQLLESYKTLSLKSMASAFGVSVAFLDNDLGKFIPNKQLNCVIDRVNGIVETNRPDNKNAQYHLLVKQGDGLLTKLQKYGAAVRLTGSDRV
notes: Rpn7, S. cerevisiae proteasome lid subunit; source: purified from S. cerevisiae as part of LP2 or lid
Take B2: in test [2], the binding result is “binds”. B3: the binding result in test [3], in test [4] and in test [5] was “binds” throughout.

B4: N12pep, fluorescently labeled peptide of the Rpn12 C-terminal helix (peptide)
peptide: DQKTNIIEKAMDYAISIENIK(5,6‑carboxyfluorescein)
notes: Rpn12, S. cerevisiae, C-terminal helix; added lysine that carries 5,6-carboxyfluorescein; also called Rpn12 C-terminal helix peptide; source: synthetic peptide (Elim Biopharmaceuticals)
For B4, the binding result in test [6] is reported as “binds”.

B5: Rpn11, subunit of LP2 and lid purified from yeast (natural protein, S. cerevisiae, UniProt P43588 1-306, looked up)
chain: MERLQRLMMNSKVGSADTGRDDTKETVYISSIALLKMLKHGRAGVPMEVMGLMLGEFVDDYTVNVVDVFAMPQSGTGVSVEAVDDVFQAKMMDMLKQTGRDQMVVGWYHSHPGFGCWLSSVDVNTQKSFEQLNSRAVAVVVDPIQSVKGKVVIDAFRLIDTGALINNLEPRQTTSNTGLLNKANIQALIHGLNRHYYSLNIDYHKTAKETKMLMNLHKEQWQSGLKMYDYEEKEESNLAATKSMVKIAEQYSKRIEEEKELTEEELKTRYVGRQDPKKHLSETADETLENNIVSVLTAGVNSVAIK
notes: Rpn11, S. cerevisiae proteasome lid subunit; source: purified from S. cerevisiae as part of LP2 or lid
For B5, the binding result in test [7] and in test [8] was “binds” throughout.
